This is an account of results in doi:10.64898/2025.12.08.692793 (bioRxiv, 2025).

In the assay the target is metabotropic glutamate receptor 2 (mGlu2) (human, UniProt Q14416 19-872). As to the kind of experiment: cryo-EM structure.
Chain of metabotropic glutamate receptor 2 (mGlu2) (Q14416 19-872): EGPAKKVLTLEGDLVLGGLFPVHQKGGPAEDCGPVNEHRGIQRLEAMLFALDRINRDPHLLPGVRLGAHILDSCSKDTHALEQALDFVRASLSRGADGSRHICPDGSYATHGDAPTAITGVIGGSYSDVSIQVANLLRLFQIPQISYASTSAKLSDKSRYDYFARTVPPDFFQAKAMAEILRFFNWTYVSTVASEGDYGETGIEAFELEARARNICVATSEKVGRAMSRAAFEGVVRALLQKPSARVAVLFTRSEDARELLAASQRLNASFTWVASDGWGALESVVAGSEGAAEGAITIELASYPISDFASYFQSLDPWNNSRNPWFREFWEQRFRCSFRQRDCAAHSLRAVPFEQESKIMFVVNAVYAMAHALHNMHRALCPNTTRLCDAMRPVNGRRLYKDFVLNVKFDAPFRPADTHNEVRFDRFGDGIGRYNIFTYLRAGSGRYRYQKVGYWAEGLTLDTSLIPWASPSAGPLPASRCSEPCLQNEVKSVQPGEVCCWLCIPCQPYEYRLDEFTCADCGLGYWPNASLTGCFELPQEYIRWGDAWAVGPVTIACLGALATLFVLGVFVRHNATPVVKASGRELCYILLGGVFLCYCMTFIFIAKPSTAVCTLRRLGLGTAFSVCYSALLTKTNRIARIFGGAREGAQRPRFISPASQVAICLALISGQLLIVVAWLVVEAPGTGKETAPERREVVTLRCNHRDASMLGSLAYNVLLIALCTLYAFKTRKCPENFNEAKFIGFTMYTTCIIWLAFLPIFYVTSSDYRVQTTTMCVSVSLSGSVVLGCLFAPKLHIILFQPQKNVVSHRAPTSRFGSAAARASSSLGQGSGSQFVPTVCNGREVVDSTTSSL

Regarding LPQEYIRW [FTM peptide (Force Transduction Motif, mGlu2 residues 556-563)], the binding result is on record as “binds”.
